The test deals with T1, His-NRF1 (Nuclear Respiratory Factor 1), bacterially expressed (UniProt Q16656 1-503).
T1 construct: Nuclear Respiratory Factor 1 (NRF1), cDNA cloned into pET28a; Vector pET28a; source: Escherichia coli BL21, expressed and purified
T1 sequence (looked up): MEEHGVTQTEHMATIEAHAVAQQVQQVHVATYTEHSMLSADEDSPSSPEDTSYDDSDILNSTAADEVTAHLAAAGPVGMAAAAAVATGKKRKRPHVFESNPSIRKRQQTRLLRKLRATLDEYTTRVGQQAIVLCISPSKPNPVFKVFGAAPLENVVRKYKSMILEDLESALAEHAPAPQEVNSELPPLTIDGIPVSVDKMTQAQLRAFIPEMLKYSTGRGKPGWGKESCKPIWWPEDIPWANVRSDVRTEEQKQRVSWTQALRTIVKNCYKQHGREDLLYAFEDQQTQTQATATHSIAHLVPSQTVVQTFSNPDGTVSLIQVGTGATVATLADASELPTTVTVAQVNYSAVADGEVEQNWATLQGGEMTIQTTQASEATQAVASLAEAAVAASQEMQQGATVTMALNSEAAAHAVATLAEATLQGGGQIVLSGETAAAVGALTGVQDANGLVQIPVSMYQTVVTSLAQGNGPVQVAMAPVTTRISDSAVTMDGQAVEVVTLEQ
The test is described as follows: pull-down; GST pull-down in vitro with bacterially expressed His-NRF1 and GST-SIAH2. Particulars: both partners purified.

B1: GST-SIAH2, bacterially expressed (enzyme, UniProt O43255 1-324, looked up)
chain: MSRPSSTGPSANKPCSKQPPPQPQHTPSPAAPPAAATISAAGPGSSAVPAAAAVISGPGGGGGAGPVSPQHHELTSLFECPVCFDYVLPPILQCQAGHLVCNQCRQKLSCCPTCRGALTPSIRNLAMEKVASAVLFPCKYATTGCSLTLHHTEKPEHEDICEYRPYSCPCPGASCKWQGSLEAVMSHLMHAHKSITTLQGEDIVFLATDINLPGAVDWVMMQSCFGHHFMLVLEKQEKYEGHQQFFAIVLLIGTRKQAENFAYRLELNGNRRRLTWEATPRSIHDGVAAAIMNSDCLVFDTAIAHLFADNGNLGINVTISTCCP
notes: E3 ligase SIAH2, cDNA cloned into pGEX-4T-1; Vector pGEX-4T-1; source: Escherichia coli BL21, expressed and purified
Consider B1, for which the binding result is listed as “binds”.
